# Measured values from paper doi:10.1101/2023.05.22.541748.
# Key:
# Ubc13 = Ubc13 (UniProt P61088); assay: NMR titration
# Ubc13 C87K/K92T/K94Q = Ubc13 C87K/K92T/K94Q (UniProt P61088); assay: NMR
# Chain of Ubc13 C87K/K92T/K94Q (P61088 whole entry C87K/K92T/K94Q): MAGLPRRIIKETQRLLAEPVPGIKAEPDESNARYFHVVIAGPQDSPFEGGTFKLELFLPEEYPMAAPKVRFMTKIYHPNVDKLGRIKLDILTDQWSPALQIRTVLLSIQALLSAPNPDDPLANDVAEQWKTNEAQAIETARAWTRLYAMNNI
# Chain of Ubc13 (P61088 whole entry): as the sequence (P61088 whole entry C87K/K92T/K94Q) above, with K87C, T92K, Q94K counted along it
Kd (Ubc13) [µM],population of the closed state of the conjugate (Ubc13 C87K/K92T/K94Q) [%],population of the closed state of the conjugate with RNF38 RING (Ubc13 C87K/K92T/K94Q) [%],Substance
55,,,RNF38 RING domain (residues 387-465) (domain or fragment)
,60,80,"ubiquitin (wild type, Q40Ub) (from UniProt P0CG48 1-76) (natural protein)"
